The record followed here is US20050186180A1.

This test has as its target murine B7-2 (recombinant, expressed from rV-B7-2 in BSC-1 cells) (murine) (UniProt P42082). Description: flow cytometry, BSC-1 cells infected with rV-B7-2 (10 MOI), FITC-conjugated antibody. A general note: Flow cytometry measures light scatter and fluorescence of single cells or particles in a stream.
Sequence of UniProt P42082 (P42082 24-309): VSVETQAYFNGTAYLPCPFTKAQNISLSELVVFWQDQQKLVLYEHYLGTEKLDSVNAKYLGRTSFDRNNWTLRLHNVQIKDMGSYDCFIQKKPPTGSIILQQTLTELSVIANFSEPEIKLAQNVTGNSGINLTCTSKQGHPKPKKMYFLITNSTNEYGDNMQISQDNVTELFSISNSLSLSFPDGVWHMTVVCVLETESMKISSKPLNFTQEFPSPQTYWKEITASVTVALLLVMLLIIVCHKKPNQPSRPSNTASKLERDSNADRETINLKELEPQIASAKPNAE

“Rat-anti-mouse B7-2 (GL-1) monoclonal antibody (Pharmingen)”: the mean fluorescence stood at 1800 and the percent of cells positive came to 98.8%.
